Reference: PMC6698748

Legend:
[1] = target: MtsR F187A (Streptococcus pyogenes (group A streptococcus), strain MGAS10870, serotype M3); test: SEC
[2] = target: MtsR (wild type, recombinant, untagged) (Streptococcus pyogenes (group A streptococcus), strain MGAS10870, serotype M3); test: SEC

| Substance | stoichiometry N [1] | stoichiometry N [2] |
| --- | --- | --- |
| MtsR F187A (natural protein) | 2 |  |
| MtsR (wild type, recombinant, untagged) (natural protein) |  | 2 |
